± gives the standard deviation of the averaged measurements.
Key:
Saccharomyces cerevisiae [1] = assay: protein stability index of tFT-peptide fusion (C-terminal peptide) (PSI (0-1 scale)); higher = more stable (slower turnover)
Protocol: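 MPS profiling in S. cerevisiae of the tFT-X12 degron library: putative degron peptides plus stable controls, 12 aa, fused to the C-terminus of a sfGFP-mCherry timer. Cells are FACS-sorted into 8 mCherry/sfGFP bins and deep-sequenced. PSI runs from 0 (unstable) to 1 (stable). Backgrounds are wild type, das1Δ and doa10Δ at 30 °C, and wild type, das1Δ, cdc34-1 and cdc53-1 at 37 °C; 2-3 technical replicates each.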

Saccharomyces cerevisiae [2] = assay: protein stability index of tFT-peptide fusion in wild type (PSI (0-1 scale)); higher = more stable (slower turnover); conditions: genetic background: wild type
Saccharomyces cerevisiae [3] = assay: protein stability index of tFT-peptide fusion in deletion strain of DOA10 (PSI (0-1 scale)); higher = more stable (slower turnover)
Protocol: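 MPS profiling in S. cerevisiae of two library types built from selected 12-aa C-degron peptides (IN1, IN2, LN1, LN3, VN2, R1-R5, W1-W3, Atg1 and Rpa12 C-termini): saturation mutagenesis libraries and C-terminal +1 capping libraries (13 aa). Each peptide is fused to the C-terminus of a sfGFP-mCherry timer, after a GGGS linker. Cells are FACS-sorted into 8 mCherry/sfGFP bins and sequenced. PSI runs from 0 (unstable) to 1 (stable), measured once in wild type and in the das1Δ or doa10Δ background.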

Saccharomyces cerevisiae [4] = assay: protein stability index of tFT-peptide fusion (C-terminal peptide) (PSI (0-1 scale)); higher = more stable (slower turnover); conditions: genetic background: wild type; temperature: 30 C
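For protein stability index of tFT-peptide fusion (C-terminal peptide) in this document: PSI is a weighted mean of sequencing reads over stability bins, variants kept only with over 10 reads, mCherry proximal and sfGFP distal, peptide attached via GGGS linker.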
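For protein stability index of tFT-peptide fusion in deletion strain of DOA10 in this document: PSI per variant is the weighted mean of its sequencing read distribution over the sorted stability bins, counting only variants with over 10 reads summed across bins.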
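For protein stability index of tFT-peptide fusion in wild type in this document: PSI derived as read-weighted mean over the 8 sorting bins, only variants exceeding 10 total reads kept, mCherry placed adjacent to the peptide and sfGFP distal.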

Sequence | protein stability index (Saccharomyces cerevisiae [2]) | protein stability index (Saccharomyces cerevisiae [3]) | further results
RSLRVLLPLYFR | 0.289 | 0.66 | protein stability index (Saccharomyces cerevisiae [1]; genetic background: cdc34-1, temperature: 37 C): 0.082 ± 0.034; protein stability index (Saccharomyces cerevisiae [1]; genetic background: cdc53-1, temperature: 37 C): 0.0762 ± 0.025; protein stability index (Saccharomyces cerevisiae [1]; genetic background: das1 deletion, temperature: 30 C): 0.234 ± 0.029; protein stability index (Saccharomyces cerevisiae [1]; genetic background: das1 deletion, temperature: 37 C): 0.271 ± 0.004; protein stability index (Saccharomyces cerevisiae [1]; genetic background: doa10 deletion, temperature: 30 C): 0.66 ± 0.029; protein stability index (Saccharomyces cerevisiae [1]; genetic background: wild type, temperature: 30 C): 0.234 ± 0.022; protein stability index (Saccharomyces cerevisiae [1]; genetic background: wild type, temperature: 37 C): 0.266 ± 0.043; protein stability index (Saccharomyces cerevisiae [4]): 0.3478 ± 0.0013
KSLRVLLPLYFR | 0.288 | 0.654 | 
GLYMCSVTCWFR | 0.265 | 0.327 | 
CLVSYPILLFFR | 0.0543 | 0.603 | 
CLVSLPTLLFFR | 0.0585 | 0.663 | 
AITLPMCPRLLR | 0.648 | 0.675 | 
FLYMCSVGCWFR | 0.351 | 0.563 | 
GLYMCSVGCHFR | 0.621 | 0.663 | 
CLVSLKILLFFR | 0.189 | 0.282 | 
GLCMCSVGCWFR | 0.256 | 0.608 | 
CLVSLVILLFFR | 0.258 | 0.34 | 
AITLPMCPCLLR | 0.367 | 0.651 | 
RVTGLDAIYFRI | 0.534 | 0.683 | 
RVLRLDAIYFRI | 0.376 | 0.666 | 
ADTLPMCPLLLR | 0.56 | 0.679 | 
RSLRVLLPLYHR | 0.626 | 0.682 | 
AITLPMCPLLLRH | 0.222 | 0.646 | 
CLVSLPVLLFFR | 0.0558 | 0.614 | 
RVTRLDAIYARI | 0.684 | 0.724 | 
AITLPMCPLLLRI | 0.0995 | 0.485 | 
RVTRLDAIYFRF | 0.415 | 0.718 | 
GLYMCSVGCWLR | 0.212 | 0.537 | 
AIELPMCPLLLR | 0.221 | 0.677 | 
RRTRLDAIYFRI | 0.422 | 0.599 | 
RVTRLDAIQFRI | 0.658 | 0.698 | 
RVTRLDQIYFRI | 0.403 | 0.696 | 
VLYMCSVGCWFR | 0.311 | 0.521 | 

Source: the supplement of paper PMC10724198
